This is an account of results in patent publication US20210139548A1 (published 2021).

Test [1] deals with T1, human NPY5 receptor (human, UniProt Q15761 1-445).
T1 sequence (looked up): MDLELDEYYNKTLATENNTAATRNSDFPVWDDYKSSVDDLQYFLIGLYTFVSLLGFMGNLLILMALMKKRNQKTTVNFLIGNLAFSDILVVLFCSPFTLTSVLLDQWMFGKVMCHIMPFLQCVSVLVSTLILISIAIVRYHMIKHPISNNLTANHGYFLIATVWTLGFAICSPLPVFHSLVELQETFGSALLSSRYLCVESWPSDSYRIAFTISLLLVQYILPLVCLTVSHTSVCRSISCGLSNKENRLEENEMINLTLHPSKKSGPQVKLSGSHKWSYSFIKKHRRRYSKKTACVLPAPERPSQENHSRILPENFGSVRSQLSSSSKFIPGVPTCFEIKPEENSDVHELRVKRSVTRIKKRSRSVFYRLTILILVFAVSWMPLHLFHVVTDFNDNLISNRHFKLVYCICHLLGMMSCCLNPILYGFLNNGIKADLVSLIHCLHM
The experiment in a line: cell-based or functional assay.

The target in test [2] is T2, human NPY1 receptor (human, UniProt P25929 1-384).
T2 sequence (looked up): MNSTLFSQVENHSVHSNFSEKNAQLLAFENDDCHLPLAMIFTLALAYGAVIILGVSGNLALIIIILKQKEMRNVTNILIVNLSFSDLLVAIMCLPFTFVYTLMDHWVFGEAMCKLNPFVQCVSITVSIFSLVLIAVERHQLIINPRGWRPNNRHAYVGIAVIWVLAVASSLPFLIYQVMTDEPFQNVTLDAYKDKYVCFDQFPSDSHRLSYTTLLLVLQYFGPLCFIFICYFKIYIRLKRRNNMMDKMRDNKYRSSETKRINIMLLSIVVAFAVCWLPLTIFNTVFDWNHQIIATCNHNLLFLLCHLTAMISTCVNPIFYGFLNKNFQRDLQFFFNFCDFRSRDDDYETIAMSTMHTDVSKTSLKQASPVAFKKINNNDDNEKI
As to the kind of experiment: cell-based or functional assay.

The target of test [3] is T3, human neuropeptide Y2 receptor (human, UniProt P49146 1-381).
T3 sequence (looked up): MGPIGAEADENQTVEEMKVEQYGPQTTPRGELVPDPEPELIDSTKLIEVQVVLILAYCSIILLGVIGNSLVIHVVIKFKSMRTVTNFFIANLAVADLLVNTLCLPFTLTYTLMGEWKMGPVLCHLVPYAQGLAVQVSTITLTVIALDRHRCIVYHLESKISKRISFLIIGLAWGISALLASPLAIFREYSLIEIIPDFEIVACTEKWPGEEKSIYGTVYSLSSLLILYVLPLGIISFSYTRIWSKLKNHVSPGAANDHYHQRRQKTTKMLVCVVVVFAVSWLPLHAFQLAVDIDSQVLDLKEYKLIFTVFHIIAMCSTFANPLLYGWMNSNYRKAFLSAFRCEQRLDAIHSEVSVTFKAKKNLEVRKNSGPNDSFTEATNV
As to the kind of experiment: cell-based or functional assay.

The target in test [4] is human NPY4 receptor (human, UniProt P50391 1-375). As to the kind of experiment: cell-based or functional assay.
Chain of human NPY4 receptor (P50391 whole entry): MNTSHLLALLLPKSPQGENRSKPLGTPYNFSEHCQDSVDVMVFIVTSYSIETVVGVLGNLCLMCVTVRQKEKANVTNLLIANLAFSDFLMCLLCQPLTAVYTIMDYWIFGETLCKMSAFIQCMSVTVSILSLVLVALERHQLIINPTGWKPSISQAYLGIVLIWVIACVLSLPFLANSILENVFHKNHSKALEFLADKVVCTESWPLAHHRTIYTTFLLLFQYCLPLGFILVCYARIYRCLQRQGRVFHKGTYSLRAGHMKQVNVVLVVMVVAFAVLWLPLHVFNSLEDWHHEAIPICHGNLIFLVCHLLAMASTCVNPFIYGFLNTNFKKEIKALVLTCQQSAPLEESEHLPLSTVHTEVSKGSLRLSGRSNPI
Test [5] has as its target T3, human neuropeptide Y2 receptor. The experiment in a line: radioligand competition (125I-PYY(1-36)), hNPY2R membranes. An outline of the steps:
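Commercial human Y2 receptor membranes (0.5 μg protein/well) were incubated with peptide for 2 h at room temperature in 50 mM HEPES, 5 mM MgCl₂, 1 mM CaCl₂, pH 7.4, with 0.2% ovalbumin. Bound radioligand was separated on PEI-soaked GF/C filters and counted by scintillation, and IC₅₀ came from nonlinear sigmoidal regression.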
A general note: Loss of bound radioactivity is the signal in a displacement assay; it reports binding, not function.

*1 amine or outer side, *2 acyl side, *3 side chain or, on linkers, in order; H or OH if unused. Side-chain parts run from the residue outwards. The star is where a group is joined. C18 diacid = O=C(O)CCCCCCCCCCCCCCCCC(=O)*; γGlu = O=C(O)[C@H](CCC(=O)[*:2])N[*:1]; Isovaleryl = CC(C)CC(=O)*; AEEA = NCCOCCOCC(=O)O

B1: Compound 41 (peptide)
peptide: Isovaleryl-APEK([AEEA-AEEA-γGlu-C18 diacid])PEEEATPEELQRYYVSLRHYYNWLTRQRY-NH2
SMILES: CC(C)CC(=O)N[C@@H](C)C(=O)N1CCC[C@H]1C(=O)N[C@@H](CCC(=O)O)C(=O)N[C@@H](CCCCNC(=O)COCCOCCNC(=O)COCCOCCNC(=O)CC[C@H](NC(=O)CCCCCCCCCCCCCCCCC(=O)O)C(=O)O)C(=O)N1CCC[C@H]1C(=O)N[C@@H](CCC(=O)O)C(=O)N[C@@H](CCC(=O)O)C(=O)N[C@@H](CCC(=O)O)C(=O)N[C@@H](C)C(=O)N[C@H](C(=O)N1CCC[C@H]1C(=O)N[C@@H](CCC(=O)O)C(=O)N[C@@H](CCC(=O)O)C(=O)N[C@@H](CC(C)C)C(=O)N[C@@H](CCC(N)=O)C(=O)N[C@@H](CCCNC(=N)N)C(=O)N[C@@H](Cc1ccc(O)cc1)C(=O)N[C@@H](Cc1ccc(O)cc1)C(=O)N[C@H](C(=O)N[C@@H](CO)C(=O)N[C@@H](CC(C)C)C(=O)N[C@@H](CCCNC(=N)N)C(=O)N[C@@H](Cc1c[nH]cn1)C(=O)N[C@@H](Cc1ccc(O)cc1)C(=O)N[C@@H](Cc1ccc(O)cc1)C(=O)N[C@@H](CC(N)=O)C(=O)N[C@@H](Cc1c[nH]c2ccccc12)C(=O)N[C@@H](CC(C)C)C(=O)N[C@H](C(=O)N[C@@H](CCCNC(=N)N)C(=O)N[C@@H](CCC(N)=O)C(=O)N[C@@H](CCCNC(=N)N)C(=O)N[C@@H](Cc1ccc(O)cc1)C(N)=O)[C@@H](C)O)C(C)C)[C@@H](C)O
As for B1, the “EC50 (HTRF cAMP Gi assay)” value in test [1] was > 5000 nM; in test [2] it was > 5000 nM; in test [3], 0.159 nM; in test [4], > 5000 nM. Also, affinity in test [5] was put at a Ki of 3.22 nM.

B2: Compound 164 (peptide)
peptide: Isovaleryl-APEK([AEEA-AEEA-γGlu-C18 diacid])PEEDASEEELQEYYVSLRHYYNWLTRQRY-NH2
SMILES: CC(C)CC(=O)N[C@@H](C)C(=O)N1CCC[C@H]1C(=O)N[C@@H](CCC(=O)O)C(=O)N[C@@H](CCCCNC(=O)COCCOCCNC(=O)COCCOCCNC(=O)CC[C@H](NC(=O)CCCCCCCCCCCCCCCCC(=O)O)C(=O)O)C(=O)N1CCC[C@H]1C(=O)N[C@@H](CCC(=O)O)C(=O)N[C@@H](CCC(=O)O)C(=O)N[C@@H](CC(=O)O)C(=O)N[C@@H](C)C(=O)N[C@@H](CO)C(=O)N[C@@H](CCC(=O)O)C(=O)N[C@@H](CCC(=O)O)C(=O)N[C@@H](CCC(=O)O)C(=O)N[C@@H](CC(C)C)C(=O)N[C@@H](CCC(N)=O)C(=O)N[C@@H](CCC(=O)O)C(=O)N[C@@H](Cc1ccc(O)cc1)C(=O)N[C@@H](Cc1ccc(O)cc1)C(=O)N[C@H](C(=O)N[C@@H](CO)C(=O)N[C@@H](CC(C)C)C(=O)N[C@@H](CCCNC(=N)N)C(=O)N[C@@H](Cc1c[nH]cn1)C(=O)N[C@@H](Cc1ccc(O)cc1)C(=O)N[C@@H](Cc1ccc(O)cc1)C(=O)N[C@@H](CC(N)=O)C(=O)N[C@@H](Cc1c[nH]c2ccccc12)C(=O)N[C@@H](CC(C)C)C(=O)N[C@H](C(=O)N[C@@H](CCCNC(=N)N)C(=O)N[C@@H](CCC(N)=O)C(=O)N[C@@H](CCCNC(=N)N)C(=O)N[C@@H](Cc1ccc(O)cc1)C(N)=O)[C@@H](C)O)C(C)C
B2: the “EC50 (HTRF cAMP Gi assay)” value was > 5000 nM in test [1], > 5000 nM in test [2], 0.235 nM in test [3] and > 5000 nM in test [4]. The inhibition constant (Ki) in test [5] came out at 4.33 nM.

B3: Compound 105 (peptide)
peptide: Isovaleryl-APEK([AEEA-AEEA-γGlu-C18 diacid])PEEDAEPEELQEYYVSLRHYYNWLTRQRY-NH2
SMILES: CC(C)CC(=O)N[C@@H](C)C(=O)N1CCC[C@H]1C(=O)N[C@@H](CCC(=O)O)C(=O)N[C@@H](CCCCNC(=O)COCCOCCNC(=O)COCCOCCNC(=O)CC[C@H](NC(=O)CCCCCCCCCCCCCCCCC(=O)O)C(=O)O)C(=O)N1CCC[C@H]1C(=O)N[C@@H](CCC(=O)O)C(=O)N[C@@H](CCC(=O)O)C(=O)N[C@@H](CC(=O)O)C(=O)N[C@@H](C)C(=O)N[C@@H](CCC(=O)O)C(=O)N1CCC[C@H]1C(=O)N[C@@H](CCC(=O)O)C(=O)N[C@@H](CCC(=O)O)C(=O)N[C@@H](CC(C)C)C(=O)N[C@@H](CCC(N)=O)C(=O)N[C@@H](CCC(=O)O)C(=O)N[C@@H](Cc1ccc(O)cc1)C(=O)N[C@@H](Cc1ccc(O)cc1)C(=O)N[C@H](C(=O)N[C@@H](CO)C(=O)N[C@@H](CC(C)C)C(=O)N[C@@H](CCCNC(=N)N)C(=O)N[C@@H](Cc1c[nH]cn1)C(=O)N[C@@H](Cc1ccc(O)cc1)C(=O)N[C@@H](Cc1ccc(O)cc1)C(=O)N[C@@H](CC(N)=O)C(=O)N[C@@H](Cc1c[nH]c2ccccc12)C(=O)N[C@@H](CC(C)C)C(=O)N[C@H](C(=O)N[C@@H](CCCNC(=N)N)C(=O)N[C@@H](CCC(N)=O)C(=O)N[C@@H](CCCNC(=N)N)C(=O)N[C@@H](Cc1ccc(O)cc1)C(N)=O)[C@@H](C)O)C(C)C
In the case of B3, the “EC50 (HTRF cAMP Gi assay)” value in test [1] is > 5000 nM; in test [2] it was > 5000 nM; in test [3], 0.284 nM; in test [4], > 5000 nM. Besides, in test [5], the affinity, expressed as Ki, was 6.94 nM.

B4: Compound 46 (peptide)
peptide: Isovaleryl-APEK([AEEA-AEEA-γGlu-C18 diacid])PEEEASPEELQRYYVSLRHYYNWLTRQRY-NH2
SMILES: CC(C)CC(=O)N[C@@H](C)C(=O)N1CCC[C@H]1C(=O)N[C@@H](CCC(=O)O)C(=O)N[C@@H](CCCCNC(=O)COCCOCCNC(=O)COCCOCCNC(=O)CC[C@H](NC(=O)CCCCCCCCCCCCCCCCC(=O)O)C(=O)O)C(=O)N1CCC[C@H]1C(=O)N[C@@H](CCC(=O)O)C(=O)N[C@@H](CCC(=O)O)C(=O)N[C@@H](CCC(=O)O)C(=O)N[C@@H](C)C(=O)N[C@@H](CO)C(=O)N1CCC[C@H]1C(=O)N[C@@H](CCC(=O)O)C(=O)N[C@@H](CCC(=O)O)C(=O)N[C@@H](CC(C)C)C(=O)N[C@@H](CCC(N)=O)C(=O)N[C@@H](CCCNC(=N)N)C(=O)N[C@@H](Cc1ccc(O)cc1)C(=O)N[C@@H](Cc1ccc(O)cc1)C(=O)N[C@H](C(=O)N[C@@H](CO)C(=O)N[C@@H](CC(C)C)C(=O)N[C@@H](CCCNC(=N)N)C(=O)N[C@@H](Cc1c[nH]cn1)C(=O)N[C@@H](Cc1ccc(O)cc1)C(=O)N[C@@H](Cc1ccc(O)cc1)C(=O)N[C@@H](CC(N)=O)C(=O)N[C@@H](Cc1c[nH]c2ccccc12)C(=O)N[C@@H](CC(C)C)C(=O)N[C@H](C(=O)N[C@@H](CCCNC(=N)N)C(=O)N[C@@H](CCC(N)=O)C(=O)N[C@@H](CCCNC(=N)N)C(=O)N[C@@H](Cc1ccc(O)cc1)C(N)=O)[C@@H](C)O)C(C)C
For the molecule B4, the “EC50 (HTRF cAMP Gi assay)” value is > 5000 nM in test [1], > 5000 nM in test [2], 0.152 nM in test [3] and > 5000 nM in test [4]. The Ki in test [5] worked out at 3.3 nM.

By Ki is commonly meant the equilibrium dissociation constant of an inhibitor or competing ligand from its target.
